In paper PMC6335420, “The cell cycle regulator GpsB functions as cytosolic adaptor for multiple cell wall enzymes” (Nature Communications, 2019):
Where two headings read alike, the source gives them in different places. Residues, ends and D or L forms follow the SMILES beside them. No end group written: not given here. *: point of attachment. X1 = CN(C)c1ccc2c(-c3ccc(N4C(=O)CC(*)C4=O)cc3C(=O)[O-])c3ccc(=[N+](C)C)cc-3oc2c1; fluorescein‑maleimide = fluorescein attached via maleimide to Cys

B1: Fluorescein-BsPBP11-32 Ala10Pro (peptide)
peptide: GSMADQFNSREPRRKANSKSSPSPKKGKKRKKC(fluorescein‑maleimide)G
notes: non-native N-terminal residues left by the recombinant method; PBP1 (ponA), Bacillus subtilis, residues 1-32; also called 31-labelled BsPBP1 1-32 A10P
B2: TAMRA-BsPBP11-32 Arg28Ala (peptide)
peptide: GSMADQFNSREARRKANC(TAMRA‑maleimide)KSSPSPKKGKKAKKGG
notes: non-native N-terminal residues left by the recombinant method; PBP1 (ponA), Bacillus subtilis, residues 1-32; also called BsPBP1 1-32 R28A
B3: TAMRA-BsPBP11-32 Arg11Ala (peptide)
peptide: GSMADQFNSREAARKANC(TAMRA‑maleimide)KSSPSPKKGKKRKKGG
notes: non-native N-terminal residues left by the recombinant method; PBP1 (ponA), Bacillus subtilis, residues 1-32; also called BsPBP1 1-32 R11A
B4: Fluorescein-BsPBP11-32 Arg8Ala (peptide)
peptide: GSMADQFNSAEARRKANSKSSPSPKKGKKRKKC(fluorescein‑maleimide)G
notes: non-native N-terminal residues left by the recombinant method; PBP1 (ponA), Bacillus subtilis, residues 1-32; also called 31-labelled BsPBP1 1-32 R8A
B5: Fluorescein-BsPBP11-32 wildtype (peptide)
peptide: GSMADQFNSREARRKANSKSSPSPKKGKKRKKC(fluorescein‑maleimide)G
notes: non-native N-terminal residues left by the recombinant method; PBP1 (ponA), Bacillus subtilis, residues 1-32, cytoplasmic mini-domain; also called BsPBP1 1-32 labelled with fluorescein at residue 31; 31-labelled peptide
B6: TAMRA-BsPBP11-32 Ala10Pro (peptide)
peptide: GSMADQFNSREPRRKANC(TAMRA‑maleimide)KSSPSPKKGKKRKKGG
notes: non-native N-terminal residues left by the recombinant method; PBP1 (ponA), Bacillus subtilis, residues 1-32; also called BsPBP1 1-32 A10P
B7: Fluorescein-BsPBP11-32 Arg28Ala (peptide)
peptide: GSMADQFNSREARRKANSKSSPSPKKGKKAKKC(fluorescein‑maleimide)G
notes: non-native N-terminal residues left by the recombinant method; PBP1 (ponA), Bacillus subtilis, residues 1-32; also called 31-labelled BsPBP1 1-32 R28A
B8: TAMRA-BsPBP11-32 Arg8Ala (peptide)
peptide: GSMADQFNSAEARRKANC(TAMRA‑maleimide)KSSPSPKKGKKRKKGG
notes: non-native N-terminal residues left by the recombinant method; PBP1 (ponA), Bacillus subtilis, residues 1-32; also called BsPBP1 1-32 R8A
B9: TAMRA-BsPBP11-32 Ser7Ala (peptide)
peptide: GSMADQFNAREARRKANC(TAMRA‑maleimide)KSSPSPKKGKKRKKGG
notes: non-native N-terminal residues left by the recombinant method; PBP1 (ponA), Bacillus subtilis, residues 1-32; also called BsPBP1 1-32 S7A
B10: TAMRA-BsPBP11-32 Arg8Lys (peptide)
peptide: GSMADQFNSKEARRKANC(TAMRA‑maleimide)KSSPSPKKGKKRKKGG
notes: non-native N-terminal residues left by the recombinant method; PBP1 (ponA), Bacillus subtilis, residues 1-32; also called BsPBP1 1-32 R8K

Experiments:
BsGpsB1-68 [1] = target: T1, BsGpsB1-68 (Bacillus subtilis, UniProt P0CI74); assay type: binding; details: FP; for reduction in affinity for BsGpsB1-68: relative to wild-type peptide
T1 construct: His6 (N, cleaved yes); made in house; host or cells: E. coli BL21(DE3)
Source text: 75 the BsGpsB5-64:BsPBP11-17 complex.

[2] = Circular dichroism of PBP peptides (helicity); assay type: physicochemical
Experimental: CD spectra were recorded on a JASCO J-810 spectropolarimeter with a PTC-4235 Peltier temperature controller using 1 mm path length quartz cuvettes. For full wavelength scans a scan speed of 10 nm^−1min^−1 and a response time of 4 s were used, the final spectra were the average of at least four measurements. BsPBP1_1-32 CD spectra were recorded at 4 °C in a buffer of 20 mM sodium phosphate, pH 7.3 at a peptide concentration of 25 μM. Peptide helical contents were estimated from molar ellipticities at 222 nm using the equation helix = [θ]222 nm / (39,500(1–2.57/n))[78] where n is the number of residues in the peptide. LmPBPA1_1-15 CD spectra were analysed at 40 μM in 20 mM sodium phosphate buffer, pH 7.8, for samples containing 0, 40 and 60% trifluoroethanol (TFE). For samples containing 80% TFE, 5 mM sodium phosphate buffer, pH 7.8, was used. The CD spectra of BsGpsB1-68 proteins were measured at a concentration of 4.5 μM in a buffer of 20 mM sodium phosphate (pH 7.8) 150 mM NaCl. For thermal melt experiments, a response time of 8 s and scan rate of 1 °C^−1min^−1 were used. All thermal melts were reversible as CD spectra recorded before and after the melts in the wavelength range 200–240 nm could be superimposed.

BsGpsB1-68 [3] = target: T2, BsGpsB1-68 (B. subtilis, UniProt P0CI74 1-68); test: fluorescence polarisation; GpsB protein titrated into TAMRA- or fluorescein-labelled peptide; 10 mM Tris.HCl pH 8.0, 250 mM NaCl, 0.1% reduced Triton X-100; all data fitted to a 1:1 interaction model, Kd ± standard error; details: both partners purified
T2 construct: GpsB, Bacillus subtilis, residues 1-68 (N-terminal domain); also called N-terminal domain of B. subtilis GpsB; wildtype BsGpsB1-68; source: E. coli BL21(DE3), purified (Ni-NTA, thrombin removal of the His6-tag, SEC); not shown: His6, N-terminal, cleaved
T2 sequence (looked up): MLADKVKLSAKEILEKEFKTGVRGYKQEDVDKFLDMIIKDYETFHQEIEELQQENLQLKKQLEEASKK

Molecule | Kd (BsGpsB1-68 [3]) [µM] | also measured
CSCC[C@H](NC(=O)[C@H](CO)NC(=O)CN)C(=O)N[C@@H](C)C(=O)N[C@@H](CC(=O)O)C(=O)N[C@@H](CCC(N)=O)C(=O)N[C@@H](Cc1ccccc1)C(=O)N[C@@H](CC(N)=O)C(=O)N[C@@H](CO)C(=O)N[C@@H](CCCNC(=N)N)C(=O)N[C@@H](CCC(=O)O)C(=O)N1CCC[C@H]1C(=O)N[C@@H](CCCNC(=N)N)C(=O)N[C@@H](CCCNC(=N)N)C(=O)N[C@@H](CCCCN)C(=O)N[C@@H](C)C(=O)N[C@@H](CC(N)=O)C(=O)N[C@@H](CSC1CC(=O)N(c2ccc(-c3c4ccc(=[N+](C)C)cc-4oc4cc(N(C)C)ccc34)c(C(=O)[O-])c2)C1=O)C(=O)N[C@@H](CCCCN)C(=O)N[C@@H](CO)C(=O)N[C@@H](CO)C(=O)N1CCC[C@H]1C(=O)N[C@@H](CO)C(=O)N1CCC[C@H]1C(=O)N[C@@H](CCCCN)C(=O)N[C@@H](CCCCN)C(=O)NCC(=O)N[C@@H](CCCCN)C(=O)N[C@@H](CCCCN)C(=O)N[C@@H](CCCNC(=N)N)C(=O)N[C@@H](CCCCN)C(=O)N[C@@H](CCCCN)C(=O)NCC(=O)NCC(=O)O (stereo partly shown) [TAMRA-BsPBP11-32 Ala10Pro] (H-GSMADQFNSREPRRKANC(X1)KSSPSPKKGKKRKKGG-OH) |  | reduction in affinity for BsGpsB1-68 (BsGpsB1-68 [1]; listed as BsPBP1_1-32^Ala10Pro): at least 6 fold; reduction in affinity for BsGpsB1-68 (BsGpsB1-68 [1]; listed as BsPBP11-32Ala10Pro): > 8 fold; helical residues corresponding to helical content ([2]; CD, 222 nm, 4 °C, 20 mM sodium phosphate pH 7.3, 25 μM peptide): one; α-helical content ([2]; CD, 222 nm, 4 °C, 20 mM sodium phosphate pH 7.3, 25 μM peptide, average of at least four measurements): 2%; secondary structure by CD (in words) ([2]; LmPBPA1 peptides 40 μM, 20 mM sodium phosphate pH 7.8, TFE 0-80% (5 mM phosphate at 80%), BsPBP1_1-32 peptides 25 μM, pH 7.3, 4 °C): mostly random coil
CSCC[C@H](NC(=O)[C@H](CO)NC(=O)CN)C(=O)N[C@@H](C)C(=O)N[C@@H](CC(=O)O)C(=O)N[C@@H](CCC(N)=O)C(=O)N[C@@H](Cc1ccccc1)C(=O)N[C@@H](CC(N)=O)C(=O)N[C@@H](CO)C(=O)N[C@@H](CCCNC(=N)N)C(=O)N[C@@H](CCC(=O)O)C(=O)N[C@@H](C)C(=O)N[C@@H](CCCNC(=N)N)C(=O)N[C@@H](CCCNC(=N)N)C(=O)N[C@@H](CCCCN)C(=O)N[C@@H](C)C(=O)N[C@@H](CC(N)=O)C(=O)N[C@@H](CSC1CC(=O)N(c2ccc(-c3c4ccc(=[N+](C)C)cc-4oc4cc(N(C)C)ccc34)c(C(=O)[O-])c2)C1=O)C(=O)N[C@@H](CCCCN)C(=O)N[C@@H](CO)C(=O)N[C@@H](CO)C(=O)N1CCC[C@H]1C(=O)N[C@@H](CO)C(=O)N1CCC[C@H]1C(=O)N[C@@H](CCCCN)C(=O)N[C@@H](CCCCN)C(=O)NCC(=O)N[C@@H](CCCCN)C(=O)N[C@@H](CCCCN)C(=O)N[C@@H](C)C(=O)N[C@@H](CCCCN)C(=O)N[C@@H](CCCCN)C(=O)NCC(=O)NCC(=O)O (stereo partly shown) [TAMRA-BsPBP11-32 Arg28Ala] (H-GSMADQFNSREARRKANC(X1)KSSPSPKKGKKAKKGG-OH) |  | binding to BsGpsB1-68 (in words) (BsGpsB1-68 [1]): no effect on binding
CSCC[C@H](NC(=O)[C@H](CO)NC(=O)CN)C(=O)N[C@@H](C)C(=O)N[C@@H](CC(=O)O)C(=O)N[C@@H](CCC(N)=O)C(=O)N[C@@H](Cc1ccccc1)C(=O)N[C@@H](CC(N)=O)C(=O)N[C@@H](CO)C(=O)N[C@@H](CCCCN)C(=O)N[C@@H](CCC(=O)O)C(=O)N[C@@H](C)C(=O)N[C@@H](CCCNC(=N)N)C(=O)N[C@@H](CCCNC(=N)N)C(=O)N[C@@H](CCCCN)C(=O)N[C@@H](C)C(=O)N[C@@H](CC(N)=O)C(=O)N[C@@H](CSC1CC(=O)N(c2ccc(-c3c4ccc(=[N+](C)C)cc-4oc4cc(N(C)C)ccc34)c(C(=O)[O-])c2)C1=O)C(=O)N[C@@H](CCCCN)C(=O)N[C@@H](CO)C(=O)N[C@@H](CO)C(=O)N1CCC[C@H]1C(=O)N[C@@H](CO)C(=O)N1CCC[C@H]1C(=O)N[C@@H](CCCCN)C(=O)N[C@@H](CCCCN)C(=O)NCC(=O)N[C@@H](CCCCN)C(=O)N[C@@H](CCCCN)C(=O)N[C@@H](CCCNC(=N)N)C(=O)N[C@@H](CCCCN)C(=O)N[C@@H](CCCCN)C(=O)NCC(=O)NCC(=O)O (stereo partly shown) [TAMRA-BsPBP11-32 Arg8Lys] (H-GSMADQFNSKEARRKANC(X1)KSSPSPKKGKKRKKGG-OH) |  | reduction in affinity for BsGpsB1-68 (BsGpsB1-68 [1]): at least 5 fold
CSCC[C@H](NC(=O)[C@H](CO)NC(=O)CN)C(=O)N[C@@H](C)C(=O)N[C@@H](CC(=O)O)C(=O)N[C@@H](CCC(N)=O)C(=O)N[C@@H](Cc1ccccc1)C(=O)N[C@@H](CC(N)=O)C(=O)N[C@@H](CO)C(=O)N[C@@H](CCCNC(=N)N)C(=O)N[C@@H](CCC(=O)O)C(=O)N[C@@H](C)C(=O)N[C@@H](C)C(=O)N[C@@H](CCCNC(=N)N)C(=O)N[C@@H](CCCCN)C(=O)N[C@@H](C)C(=O)N[C@@H](CC(N)=O)C(=O)N[C@@H](CSC1CC(=O)N(c2ccc(-c3c4ccc(=[N+](C)C)cc-4oc4cc(N(C)C)ccc34)c(C(=O)[O-])c2)C1=O)C(=O)N[C@@H](CCCCN)C(=O)N[C@@H](CO)C(=O)N[C@@H](CO)C(=O)N1CCC[C@H]1C(=O)N[C@@H](CO)C(=O)N1CCC[C@H]1C(=O)N[C@@H](CCCCN)C(=O)N[C@@H](CCCCN)C(=O)NCC(=O)N[C@@H](CCCCN)C(=O)N[C@@H](CCCCN)C(=O)N[C@@H](CCCNC(=N)N)C(=O)N[C@@H](CCCCN)C(=O)N[C@@H](CCCCN)C(=O)NCC(=O)NCC(=O)O (stereo partly shown) [TAMRA-BsPBP11-32 Arg11Ala] (H-GSMADQFNSREAARKANC(X1)KSSPSPKKGKKRKKGG-OH) |  | reduction in affinity for BsGpsB1-68 (BsGpsB1-68 [1]): at least 5 fold
CSCC[C@H](NC(=O)[C@H](CO)NC(=O)CN)C(=O)N[C@@H](C)C(=O)N[C@@H](CC(=O)O)C(=O)N[C@@H](CCC(N)=O)C(=O)N[C@@H](Cc1ccccc1)C(=O)N[C@@H](CC(N)=O)C(=O)N[C@@H](CO)C(=O)N[C@@H](C)C(=O)N[C@@H](CCC(=O)O)C(=O)N[C@@H](C)C(=O)N[C@@H](CCCNC(=N)N)C(=O)N[C@@H](CCCNC(=N)N)C(=O)N[C@@H](CCCCN)C(=O)N[C@@H](C)C(=O)N[C@@H](CC(N)=O)C(=O)N[C@@H](CSC1CC(=O)N(c2ccc(-c3c4ccc(=[N+](C)C)cc-4oc4cc(N(C)C)ccc34)c(C(=O)[O-])c2)C1=O)C(=O)N[C@@H](CCCCN)C(=O)N[C@@H](CO)C(=O)N[C@@H](CO)C(=O)N1CCC[C@H]1C(=O)N[C@@H](CO)C(=O)N1CCC[C@H]1C(=O)N[C@@H](CCCCN)C(=O)N[C@@H](CCCCN)C(=O)NCC(=O)N[C@@H](CCCCN)C(=O)N[C@@H](CCCCN)C(=O)N[C@@H](CCCNC(=N)N)C(=O)N[C@@H](CCCCN)C(=O)N[C@@H](CCCCN)C(=O)NCC(=O)NCC(=O)O (stereo partly shown) [TAMRA-BsPBP11-32 Arg8Ala] (H-GSMADQFNSAEARRKANC(X1)KSSPSPKKGKKRKKGG-OH) |  | reduction in affinity for BsGpsB1-68 (BsGpsB1-68 [1]): at least 5 fold
B1 | > 500 | 
B2 | 90 | 
B3 | > 600 | 
B4 | > 500 | 
B5 | 100 | 
B6 | > 1000 | 
B7 | 130 | 
B8 | > 1700 | 
B9 | > 700 | 
B10 | > 2000 | 
